For assay [1], the target named is T1, NdmB (wild-type theobromine N3-demethylase) (UniProt H9N290).
T1 sequence (looked up): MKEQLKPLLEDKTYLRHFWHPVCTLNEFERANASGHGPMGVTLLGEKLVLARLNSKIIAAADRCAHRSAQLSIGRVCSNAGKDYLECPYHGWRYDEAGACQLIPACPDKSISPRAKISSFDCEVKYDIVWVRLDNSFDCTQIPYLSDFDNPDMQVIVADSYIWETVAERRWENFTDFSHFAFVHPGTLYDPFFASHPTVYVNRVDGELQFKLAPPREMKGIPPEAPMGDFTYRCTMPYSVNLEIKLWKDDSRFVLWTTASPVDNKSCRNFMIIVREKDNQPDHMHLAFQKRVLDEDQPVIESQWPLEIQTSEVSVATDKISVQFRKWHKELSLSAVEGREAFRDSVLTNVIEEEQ
As to the kind of experiment: cell-based or functional assay.

The target of assay [2] is T2, NdmA (wild-type caffeine N1-demethylase) (UniProt H9N289).
T2 sequence (looked up): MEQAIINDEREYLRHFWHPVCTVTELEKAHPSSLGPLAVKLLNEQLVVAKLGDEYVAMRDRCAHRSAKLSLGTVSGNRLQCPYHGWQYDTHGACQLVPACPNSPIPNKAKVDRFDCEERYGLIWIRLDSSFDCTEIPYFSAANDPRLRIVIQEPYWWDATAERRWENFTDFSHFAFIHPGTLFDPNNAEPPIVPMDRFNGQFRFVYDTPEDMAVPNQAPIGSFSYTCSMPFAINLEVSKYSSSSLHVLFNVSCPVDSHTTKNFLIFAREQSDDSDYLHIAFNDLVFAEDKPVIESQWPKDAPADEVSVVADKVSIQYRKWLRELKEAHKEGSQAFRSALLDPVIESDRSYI
Briefly: cell-based or functional assay.

Where a chain is given by its changes, count along the chain named. Names may count otherwise.

B1: NdmD V541W mutant (NdmDW) (enzyme, UniProt H9N291 1-588, looked up)
chain: MNKLDVNQWFPIATTEDLPKRHVFHATLLGQEMAIWRDDSGSVNAWENRCPHRGLRLTLGANTGNELRCQYHGWTYESGTGGCTFVPAHRDAPPPNAARVNTFPVREKHGFIWTTLGQPPGEPISILDDAQLVNAVKTNLHSVVIDADIDGVVSVLRQNLSAFIDVFGAASAEDLHLKSMLQDRGILVTRSGSIAIHFYMQRSTISKCVVHAQVLTPGRPGYELQKNYSYAMNVIRRAAEAVATDLISITDISDQTIEKLEVVRENMTKAPPTHYICEVVTRTQETGDINSYWLKPIGYPLPAFSPGMHISITTPEGSIRQYSLVNGPDERESFIIGVKKEIQSRGGSRSMHEDVKVGTQLKVTLPRNGFPLVQTRKHPILVAGGIGITPILCMAQALDQQGSSYEIHYFARAFEHVPFQDRLTALGDRLNVHLGLGPDETRAKLPDIMEIHNAQDVDVYTCGPQPMIETVSAVALAHGIAEESIRFEFFSKKNDVPVSDEEYEVELKKTGQIFTVSPGSTLLQACLDNDVRIEASCEQGWCGTCITPVVSGDLEHHDTYLSKKERESGKWIMPCVSRCKSKKIVLDL
On to B1, for which, in assay [1], the N3-demethylase activity in NdmB cells, reduction worked out at 36 % reduced and the remaining N-demethylase activity in the in vivo assays (% of the wild-type enzyme) is above 60. In assay [2], this molecule came in with an N1-demethylase activity in NdmA cells, lower than in cells with the wild type reductase of 7 % lower and a remaining N-demethylase activity in the in vivo assays (% of the wild-type enzyme) above 60.

B2: NdmD V541R mutant (NdmDR) (enzyme, UniProt H9N291 1-588, looked up)
chain: B1 chain with W541R
In assay [1], B2 displayed an N3-demethylase activity in NdmB cells, reduction of 20 % reduced and a remaining N-demethylase activity in the in vivo assays (% of the wild-type enzyme) above 60. In assay [2], this molecule gave an N1-demethylase activity in NdmA cells, lower than in cells with the wild type reductase of 30 % lower and a remaining N-demethylase activity in the in vivo assays (% of the wild-type enzyme) above 60.

Source of the values: US20230193332A1.
